Measured values reported in PMC7367873, “Dissecting the sequence determinants for dephosphorylation by the catalytic subunits of phosphatases PP1 and PP2A” (Nature Communications, 2020).

B1: KIFC3 (protein, UniProt Q9BVG8 1-833, looked up)
Kinesin-like protein KIFC3: MVPSRRTWNLGATPSLRGLWRVGRAPEPEPGMARPAPAPASPAARPFPHTGPGRLRTGRGKDTPVCGDEDSSARSAARPALAQCRALSVDWAGPGSPHGLYLTLQVEHLKEKLISQAQEVSRLRSELGGTDLEKHRDLLMVENERLRQEMRRCEAELQELRTKPAGPCPGCEHSQESAQLRDKLSQLQLEMAESKGMLSELNLEVQQKTDRLAEVELRLKDCLAEKAQEEERLSRRLRDSHETIASLRAQSPPVKYVIKTVEVESSKTKQALSESQARNQHLQEQVAMQRQVLKEMEQQLQSSHQLTARLRAQIAMYESELERAHGQMLEEMQSLEEDKNRAIEEAFARAQVEMKAVHENLAGVRTNLLTLQPALRTLTNDYNGLKRQVRGFPLLLQEALRSVKAEIGQAIEEVNSNNQELLRKYRRELQLRKKCHNELVRLKGNIRVIARVRPVTKEDGEGPEATNAVTFDADDDSIIHLLHKGKPVSFELDKVFSPQASQQDVFQEVQALVTSCIDGFNVCIFAYGQTGAGKTYTMEGTAENPGINQRALQLLFSEVQEKASDWEYTITVSAAEIYNEVLRDLLGKEPQEKLEIRLCPDGSGQLYVPGLTEFQVQSVDDINKVFEFGHTNRTTEFTNLNEHSSRSHALLIVTVRGVDCSTGLRTTGKLNLVDLAGSERVGKSGAEGSRLREAQHINKSLSALGDVIAALRSRQGHVPFRNSKLTYLLQDSLSGDSKTLMVVQVSPVEKNTSETLYSLKFAERVRSVELGPGLRRAELGSWSSQEHLEWEPACQTPQPSARAHSAPSSGTSSRPGSIRRKLQPSGKSRPLPV
B2: MYO1E (protein, UniProt Q12965 1-1108, looked up)
Unconventional myosin-Ie: MGSKGVYQYHWQSHNVKHSGVDDMVLLSKITENSIVENLKKRYMDDYIFTYIGSVLISVNPFKQMPYFGEKEIEMYQGAAQYENPPHIYALADNMYRNMIIDRENQCVIISGESGAGKTVAAKYIMSYISRVSGGGTKVQHVKDIILQSNPLLEAFGNAKTVRNNNSSRFGKYFEIQFSPGGEPDGGKISNFLLEKSRVVMRNPGERSFHIFYQLIEGASAEQKHSLGITSMDYYYYLSLSGSYKVDDIDDRREFQETLHAMNVIGIFAEEQTLVLQIVAGILHLGNISFKEVGNYAAVESEEFLAFPAYLLGINQDRLKEKLTSRQMDSKWGGKSESIHVTLNVEQACYTRDALAKALHARVFDFLVDSINKAMEKDHEEYNIGVLDIYGFEIFQKNGFEQFCINFVNEKLQQIFIELTLKAEQEEYVQEGIRWTPIEYFNNKIVCDLIENKVNPPGIMSILDDVCATMHAVGEGADQTLLQKLQMQIGSHEHFNSWNQGFIIHHYAGKVSYDMDGFCERNRDVLFMDLIELMQSSELPFIKSLFPENLQADKKGRPTTAGSKIKKQANDLVSTLMKCTPHYIRCIKPNETKKPRDWEESRVKHQVEYLGLKENIRVRRAGYAYRRIFQKFLQRYAILTKATWPSWQGEEKQGVLHLLQSVNMDSDQFQLGRSKVFIKAPESLFLLEEMRERKYDGYARVIQKSWRKFVARKKYVQMREEASDLLLNKKERRRNSINRNFIGDYIGMEEHPELQQFVGKREKIDFADTVTKYDRRFKGVKRDLLLTPKCLYLIGREKVKQGPDKGLVKEVLKRKIEIERILSVSLSTMQDDIFILHEQEYDSLLESVFKTEFLSLLAKRYEEKTQKQLPLKFSNTLELKLKKENWGPWSAGGSRQVQFHQGFGDLAVLKPSNKVLQVSIGPGLPKNSRPTRRNTTQNTGYSSGTQNANYPVRAAPPPPGYHQNGVIRNQYVPYPHAPGSQRSNQKSLYTSMARPPLPRQQSTSSDRVSQTPESLDFLKVPDQGAAGVRRQTTSRPPPAGGRPKPQPKPKPQVPQCKALYAYDAQDTDELSFNANDIIDIIKEDPSGWWTGRLRGKQGLFPNNYVTKI

How the values were obtained:
GFP-14-3-3β = GFP-14-3-3β co-IP with LC-MS/MS, untreated GFP-14-3-3β versus GFP control (14-3-3 interactome); format: binding, human; settings: GFP-14-3-3β co-IP LC-MS/MS; untreated vs GFP; student's t-test; label-free quantification, 3 replicates each
[1] = tested on: GFP-14-3-3β and its binding proteins; test: GFP-14-3-3β co-IP with LC-MS/MS label-free quantification, untreated versus PP1c-treated; design: species or system human; settings: GFP-14-3-3β co-IP LC-MS/MS; PP1 vs untreated; student's t-test; label-free quantification, 3 replicates each

Row | Molecule | Difference (log2), untreated vs GFP (GFP-14-3-3β) [log2] | Difference (log2), PP1 vs untreated [1] [log2]
1 | B1 | 1.361 | -0.1977
2 | B2 | 1.374 | -0.1954
